T1: human FcγRIIa type R (allotype R131) extracellular domain with C-terminal His tag (human, UniProt P12318 34-217)
T1 construct: extracellular domain; also called FcγRIIaR; FcγRIIa R type; not shown: His tag at the C terminus
T1 sequence (looked up): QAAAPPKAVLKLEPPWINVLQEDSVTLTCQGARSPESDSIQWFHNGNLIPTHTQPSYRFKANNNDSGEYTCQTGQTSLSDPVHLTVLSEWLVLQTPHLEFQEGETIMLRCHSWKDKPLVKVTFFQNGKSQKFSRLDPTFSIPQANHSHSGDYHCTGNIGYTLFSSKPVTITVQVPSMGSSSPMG

T2: human FcγRIIa type R extracellular domain with C-terminal His tag (human, UniProt P12318 34-217)
T2 construct: extracellular domain; also called FcγRIIaR; FcγRIIa(R)
T2 sequence (looked up): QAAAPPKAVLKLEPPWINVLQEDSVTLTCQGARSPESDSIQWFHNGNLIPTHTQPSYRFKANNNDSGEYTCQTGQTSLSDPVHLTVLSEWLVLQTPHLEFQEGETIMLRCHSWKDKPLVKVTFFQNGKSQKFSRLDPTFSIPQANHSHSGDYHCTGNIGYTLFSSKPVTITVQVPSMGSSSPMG

T3: human FcγRIIa type H extracellular domain with C-terminal His tag (human, UniProt P12318 34-217)
T3 construct: extracellular domain; also called FcγRIIaH; FcγRIIa(H)
T3 sequence (looked up): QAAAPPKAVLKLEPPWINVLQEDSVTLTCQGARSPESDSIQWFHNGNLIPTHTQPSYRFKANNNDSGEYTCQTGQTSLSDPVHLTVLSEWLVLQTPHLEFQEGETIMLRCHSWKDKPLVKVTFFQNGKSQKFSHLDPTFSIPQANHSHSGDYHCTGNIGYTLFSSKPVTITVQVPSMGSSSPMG

T4: human FcγRIIb extracellular domain with C-terminal His tag (human, UniProt P31994 43-217)
T4 construct: extracellular domain
T4 sequence (looked up): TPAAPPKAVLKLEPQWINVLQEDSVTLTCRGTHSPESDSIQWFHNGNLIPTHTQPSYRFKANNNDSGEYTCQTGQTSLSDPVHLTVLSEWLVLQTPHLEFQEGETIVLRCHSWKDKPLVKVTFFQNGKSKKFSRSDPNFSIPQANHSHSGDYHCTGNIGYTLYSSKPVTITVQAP


Legend:
[1] = molecular target: T1, human FcγRIIa type R (allotype R131) …; experiment: SPR (Biacore), antibody captured, FcγR analyte
[2] = molecular target: T5, human FcγRIa extracellular domain with C-terminal His tag (human, UniProt P12314 16-292); experiment: SPR (Biacore)
T5 construct: extracellular domain
T5 sequence (P12314 16-292): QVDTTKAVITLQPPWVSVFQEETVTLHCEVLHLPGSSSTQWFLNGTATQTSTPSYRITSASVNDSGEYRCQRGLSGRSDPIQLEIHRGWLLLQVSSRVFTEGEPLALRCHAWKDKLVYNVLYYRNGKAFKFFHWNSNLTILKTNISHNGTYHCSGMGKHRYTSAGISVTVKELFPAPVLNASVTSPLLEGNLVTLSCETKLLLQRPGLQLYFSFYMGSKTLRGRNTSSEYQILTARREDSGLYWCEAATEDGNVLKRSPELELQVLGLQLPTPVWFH

[3] = molecular target: T2, human FcγRIIa type R extracellular …; experiment: SPR (Biacore)
[4] = molecular target: T3, human FcγRIIa type H extracellular …; experiment: SPR (Biacore)
[5] = molecular target: T4, human FcγRIIb extracellular domain with …; experiment: SPR (Biacore)
[6] = molecular target: T4, human FcγRIIb extracellular domain with …; experiment: SPR (Biacore), ratio of KDs
[7] = molecular target: T2, human FcγRIIa type R extracellular …; experiment: SPR (Biacore), parent IL6R-B3/IL6R-L
[8] = molecular target: T4, human FcγRIIb extracellular domain with …; experiment: SPR (Biacore), parent IL6R-B3/IL6R-L
[9] = molecular target: T6, human FcγRIIIa type V (allotype V158) extracellular domain with C-terminal His tag (human, UniProt P08637 17-208); experiment: SPR (Biacore), antibody captured, FcγR analyte
T6 construct: extracellular domain; also called FcγRIIIaV; FcγRIIIa V type; not shown: His tag at the C terminus
T6 sequence (P08637 17-208 F176V): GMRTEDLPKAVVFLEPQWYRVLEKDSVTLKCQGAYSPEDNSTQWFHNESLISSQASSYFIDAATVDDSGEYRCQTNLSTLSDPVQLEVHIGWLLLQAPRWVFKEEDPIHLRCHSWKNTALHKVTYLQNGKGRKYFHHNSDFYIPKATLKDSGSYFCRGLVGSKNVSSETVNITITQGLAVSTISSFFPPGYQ

Kd [2] [µM] | Kd [3] [µM] | Kd [4] [µM] | Kd [5] [µM] | KD(IIaH)/KD(IIb) [6] | KD(IIaR)/KD(IIb) [6] | KD(IIaR) parent/KD(IIaR) altered polypeptide [7] | KD(IIb) parent/KD(IIb) altered polypeptide [8] | Kd [9] [µM] | Binder | also measured
– | – | – | – | – | – | – | – | 63 | IL6R-BP213/IL6R-L (antibody, human IgG1, kappa, copies: 2 + 2) heavy: QVQLQESGPGLVKPSETLSLTCAVSGHSISHDHAWSWVRQPPGEGLEWIGFISYSGITNYNPSLQGRVTISRDNSKNTLYLQMNSLRAEDTAVYYCARSLARTTAMDYWGEGTLVTVSSASTKGPSVFPLAPSSKSTSGGTAALGCLVKDYFPEPVTVSWNSGALTSGVHTFPAVLQSSGLYSLSSVVTVPSSSLGTQTYICNVNHKPSNTKVDKKVEPKSCDKTHTCPPCPAPDLLGGDSVFLFPPKPKDTLMISRTPEVTCVVVDVSDEDGEVKFNWYVDGVEVHNAKTKPREEQYNSTYRVVSVLTVLHQDWLNGKEYKCKVSNKALPRPIEKTISKAKGQPREPQVYTLPPSRDELTKNQVSLTCLVKGFYPSDIAVEWESNGQPENNYKTTPPVLDSDGSFFLYSKLTVDKSRWQQGNVFSCSVMHEALHNHYTQESLSLSP light: not shown | –
– | – | – | – | – | – | – | – | 61 | IL6R-BP199/IL6R-L (antibody, human IgG1, kappa, copies: 2 + 2) heavy: QVQLQESGPGLVKPSETLSLTCAVSGHSISHDHAWSWVRQPPGEGLEWIGFISYSGITNYNPSLQGRVTISRDNSKNTLYLQMNSLRAEDTAVYYCARSLARTTAMDYWGEGTLVTVSSASTKGPSVFPLAPSSKSTSGGTAALGCLVKDYFPEPVTVSWNSGALTSGVHTFPAVLQSSGLYSLSSVVTVPSSSLGTQTYICNVNHKPSNTKVDKKVEPKSCDKTHTCPPCPAPDLLGGDSVFLFPPKPKDTLMISRTPEVTCVVVDVSHEDPEVKFNWYVDGVEVHNAKTKPREEQYNSTYRVVSVLTVLHQDWLNGKEYKCKVSNDALPRPIEKTISKAKGQPREPQVYTLPPSRDELTKNQVSLTCLVKGFYPSDIAVEWESNGQPENNYKTTPPVLDSDGSFFLYSKLTVDKSRWQQGNVFSCSVMHEALHNHYTQESLSLSP light: not shown | –
0.032 | 0.25 | 2.8 | 0.0064 | 436 | 38.1 | 4.5 | 482 | – | IL6R-BP551/IL6R-L (antibody, human IgG1, kappa, copies: 2 + 2) heavy: QVQLQESGPGLVKPSETLSLTCAVSGHSISHDHAWSWVRQPPGEGLEWIGFISYSGITNYNPSLQGRVTISRDNSKNTLYLQMNSLRAEDTAVYYCARSLARTTAMDYWGEGTLVTVSSASTKGPSVFPLAPSSKSTSGGTAALGCLVKDYFPEPVTVSWNSGALTSGVHTFPAVLQSSGLYSLSSVVTVPSSSLGTQTYICNVNHKPSNTKVDKKVEPKSCDKTHTCPPCPAPELLGDDSVFLFPPKPKDTLMISRTPEVTCVVIDVSEEDGDVKFNWYVDGVEVHNAKTKPREEQDNSTYRVVSVLTVLHQDWLNGKEYKCKVSNKALPRPIEKTISKAKGQPREPQVYTLPPSRDELTKNQVSLTCLVKGFYPSDIAVEWESNGQPENNYKTTPPVLDSDGSFFLYSKLTVDKSRWQQGNVFSCSVMHEALHNHYTQESLSLSP light: not shown | –

More lines, now with the values behind:

Binder | Kd [2] [µM] | Kd [3] [µM] | Kd [4] [µM] | Kd [5] [µM] | KD(IIaH)/KD(IIb) [6] | KD(IIaR)/KD(IIb) [6] | KD(IIaR) parent/KD(IIaR) altered polypeptide [7] | KD(IIb) parent/KD(IIb) altered polypeptide [8] | Kd [9] [µM] | also measured
IL6R-BP186/IL6R-L (antibody, human IgG1, kappa, copies: 2 + 2) heavy: QVQLQESGPGLVKPSETLSLTCAVSGHSISHDHAWSWVRQPPGEGLEWIGFISYSGITNYNPSLQGRVTISRDNSKNTLYLQMNSLRAEDTAVYYCARSLARTTAMDYWGEGTLVTVSSASTKGPSVFPLAPSSKSTSGGTAALGCLVKDYFPEPVTVSWNSGALTSGVHTFPAVLQSSGLYSLSSVVTVPSSSLGTQTYICNVNHKPSNTKVDKKVEPKSCDKTHTCPPCPAPDYLGDDSVFLFPPKPKDTLMISRTPEVTCVVVDVSHEDGEVKFNWYVDGVEVHNAKTKPREEQDNSTYRVVSVLTVLHQDWLNGKEYKCKVSNAALPKPIEKTISKAKGQPREPQVYTLPPSRDELTKNQVSLTCLVKGFYPSDIAVEWESNGQPENNYKTTPPVLDSDGSFFLYSKLTVDKSRWQQGNVFSCSVMHEALHNHYTQESLSLSP light: not shown | – | – | – | – | – | – | – | – | – | Kd [1]: 0.96 µM
IL6R-BP488/IL6R-L (antibody, human IgG1, kappa, copies: 2 + 2) heavy: QVQLQESGPGLVKPSETLSLTCAVSGHSISHDHAWSWVRQPPGEGLEWIGFISYSGITNYNPSLQGRVTISRDNSKNTLYLQMNSLRAEDTAVYYCARSLARTTAMDYWGEGTLVTVSSASTKGPSVFPLAPSSKSTSGGTAALGCLVKDYFPEPVTVSWNSGALTSGVHTFPAVLQSSGLYSLSSVVTVPSSSLGTQTYICNVNHKPSNTKVDKKVEPKSCDKTHTCPPCPAPDLLGDDSVFLFPPKPKDTLMISRTPEVTCVVIDVAEEDGEVKFNWYVDGVEVHNAKTKPREEQDNSTYRVVSVLTVLHQDWLNGKEYKCKVSNKALPRPIEKTISKAKGQPREPQVYTLPPSRDELTKNQVSLTCLVKGFYPSDIAVEWESNGQPENNYKTTPPVLDSDGSFFLYSKLTVDKSRWQQGNVFSCSVMHEALHNHYTQESLSLSP light: not shown | 0.0022 | 0.074 | 1.6 | 0.0019 | 865 | 40.1 | 14.8 | 1680 | – | –
IL6R-BP205/IL6R-L (antibody, human IgG1, kappa, copies: 2 + 2) heavy: QVQLQESGPGLVKPSETLSLTCAVSGHSISHDHAWSWVRQPPGEGLEWIGFISYSGITNYNPSLQGRVTISRDNSKNTLYLQMNSLRAEDTAVYYCARSLARTTAMDYWGEGTLVTVSSASTKGPSVFPLAPSSKSTSGGTAALGCLVKDYFPEPVTVSWNSGALTSGVHTFPAVLQSSGLYSLSSVVTVPSSSLGTQTYICNVNHKPSNTKVDKKVEPKSCDKTHTCPPCPAPDLLGGDSVFLFPPKPKDTLMISRTPEVTCVVVDVSHEDGEVKFNWYVDGVEVHNAKTKPREEQDNSTYRVVSVLTVLHQDWLNGKEYKCKVSNKALPRPIEKTISKAKGQPREPQVYTLPPSRDELTKNQVSLTCLVKGFYPSDIAVEWESNGQPENNYKTTPPVLDSDGSFFLYSKLTVDKSRWQQGNVFSCSVMHEALHNHYTQESLSLSP light: not shown | – | – | – | – | – | – | – | – | 68 | –
IL6R-BP190/IL6R-L (antibody, human IgG1, kappa, copies: 2 + 2) heavy: QVQLQESGPGLVKPSETLSLTCAVSGHSISHDHAWSWVRQPPGEGLEWIGFISYSGITNYNPSLQGRVTISRDNSKNTLYLQMNSLRAEDTAVYYCARSLARTTAMDYWGEGTLVTVSSASTKGPSVFPLAPSSKSTSGGTAALGCLVKDYFPEPVTVSWNSGALTSGVHTFPAVLQSSGLYSLSSVVTVPSSSLGTQTYICNVNHKPSNTKVDKKVEPKSCDKTHTCPPCPAPELLGDDSVFLFPPKPKDTLMISRTPEVTCVVVDVSDEDGEVKFNWYVDGVEVHNAKTKPREEQYNSTYRVVSVLTVLHQDWLNGKEYKCKVSNKALPKPIEKTISKAKGQPREPQVYTLPPSRDELTKNQVSLTCLVKGFYPSDIAVEWESNGQPENNYKTTPPVLDSDGSFFLYSKLTVDKSRWQQGNVFSCSVMHEALHNHYTQESLSLSP light: not shown | – | – | – | – | – | – | – | – | 45 | –
IL6R-BP556/IL6R-L (antibody, human IgG1, kappa, copies: 2 + 2) heavy: QVQLQESGPGLVKPSETLSLTCAVSGHSISHDHAWSWVRQPPGEGLEWIGFISYSGITNYNPSLQGRVTISRDNSKNTLYLQMNSLRAEDTAVYYCARSLARTTAMDYWGEGTLVTVSSASTKGPSVFPLAPSSKSTSGGTAALGCLVKDYFPEPVTVSWNSGALTSGVHTFPAVLQSSGLYSLSSVVTVPSSSLGTQTYICNVNHKPSNTKVDKKVEPKSCDKTHTCPPCPAPELLGDDSVFLFPPKPKDTLMISRTPEVTCVVIDVGEEDGEVKFNWYVDGVEVHNAKTKPREEQDNSTYRVVSVLTVLHQDWLNGKEYKCKVSNKALPRPIEKTISKAKGQPREPQVYTLPPSRDELTKNQVSLTCLVKGFYPSDIAVEWESNGQPENNYKTTPPVLDSDGSFFLYSKLTVDKSRWQQGNVFSCSVMHEALHNHYTQESLSLSP light: not shown | 0.043 | 0.3 | 5.8 | 0.0084 | 692 | 35.4 | 3.7 | 370 | – | –
IL6R-BP207/IL6R-L (antibody, human IgG1, kappa, copies: 2 + 2) heavy: QVQLQESGPGLVKPSETLSLTCAVSGHSISHDHAWSWVRQPPGEGLEWIGFISYSGITNYNPSLQGRVTISRDNSKNTLYLQMNSLRAEDTAVYYCARSLARTTAMDYWGEGTLVTVSSASTKGPSVFPLAPSSKSTSGGTAALGCLVKDYFPEPVTVSWNSGALTSGVHTFPAVLQSSGLYSLSSVVTVPSSSLGTQTYICNVNHKPSNTKVDKKVEPKSCDKTHTCPPCPAPDLLGGDSVFLFPPKPKDTLMISRTPEVTCVVVDVSHEDPEVKFNWYVDGVEVHNAKTKPREEQYNSTYRVVSVLTVLHQDWLNGKEYKCKVSNKALPRPIEKTISKAKGQPREPQVYTLPPSRDELTKNQVSLTCLVKGFYPSDIAVEWESNGQPENNYKTTPPVLDSDGSFFLYSKLTVDKSRWQQGNVFSCSVMHEALHNHYTQESLSLSP light: not shown | – | – | – | – | – | – | – | – | 65 | –
